The test system of test [1] is ICAM-1. Particulars: cited from earlier work.
Test [2] relates to ICAM-1. The test can be described thus: Adhesion of 293 cells transfected with CD11a I domain mutants/CD18 to ICAM-1Fc. In kind it is cell-based, human. Particulars: wide range of concentrations of ICAM-1, data not shown.

Where a chain is given by its changes, count along the chain named. Names and notes keep the numbering of the source.

Data on 2 molecules can be found in publication PMC2192333 (The Journal of Experimental Medicine, 1996).

B1: D137A (protein, UniProt P20701 26-1170, looked up, variant D137A)
Integrin alpha-L: YNLDVRGARSFSPPRAGRHFGYRVLQVGNGVIVGAPGEGNSTGSLYQCQSGTGHCLPVTLRGSNYTSKYLGMTLATDPTDGSILACDPGLSRTCDQNTYLSGLCYLFRQNLQGPMLQGRPGFQECIKGNVDLVFLFAGSMSLQPDEFQKILDFMKDVMKKLSNTSYQFAAVQFSTSYKTEFDFSDYVKRKDPDALLKHVKHMLLLTNTFGAINYVATEVFREELGARPDATKVLIIITDGEATDSGNIDAAKDIIRYIIGIGKHFQTKESQETLHKFASKPASEFVKILDTFEKLKDLFTELQKKIYVIEGTSKQDLTSFNMELSSSGISADLSRGHAVVGAVGAKDWAGGFLDLKADLQDDTFIGNEPLTPEVRAGYLGYTVTWLPSRQKTSLLASGAPRYQHMGRVLLFQEPQGGGHWSQVQTIHGTQIGSYFGGELCGVDVDQDGETELLLIGAPLFYGEQRGGRVFIYQRRQLGFEEVSELQGDPGYPLGRFGEAITALTDINGDGLVDVAVGAPLEEQGAVYIFNGRHGGLSPQPSQRIEGTQVLSGIQWFGRSIHGVKDLEGDGLADVAVGAESQMIVLSSRPVVDMVTLMSFSPAEIPVHEVECSYSTSNKMKEGVNITICFQIKSLIPQFQGRLVANLTYTLQLDGHRTRRRGLFPGGRHELRRNIAVTTSMSCTDFSFHFPVCVQDLISPINVSLNFSLWEEEGTPRDQRAQGKDIPPILRPSLHSETWEIPFEKNCGEDKKCEANLRVSFSPARSRALRLTAFASLSVELSLSNLEEDAYWVQLDLHFPPGLSFRKVEMLKPHSQIPVSCEELPEESRLLSRALSCNVSSPIFKAGHSVALQMMFNTLVNSSWGDSVELHANVTCNNEDSDLLEDNSATTIIPILYPINILIQDQEDSTLYVSFTPKGPKIHQVKHMYQVRIQPSIHDHNIPTLEAVVGVPQPPSEGPITHQWSVQMEPPVPCHYEDLERLPDAAEPCLPGALFRCPVVFRQEILVQVIGTLELVGEIEASSMFSLCSSLSISFNSSKHFHLYGSNASLAQVVMKVDVVYEKQMLYLYVLSGIGGLLLLLLIFIVLYKVGFFKRNLKEKMEAGRGVPNGIPAEDSEQLASGQEAGDPGCLKPLHEKDSESGGGKD
As for B1, the “binding to ICAM-1” value in the test on ICAM-1 [1] is “critical to ICAM-1 binding”.

B2: H/M53: human Ile-126 and Asn-129 replaced with murine residues Met and Lys, respectively (protein, UniProt P20701 26-1170, looked up, variant I126M N129K)
Integrin alpha-L: B1 Integrin alpha-L with I126M, N129K, A137D
B2: the “adhesion to ICAM-1, wide range of ICAM-1 concentrations” value with ICAM-1 [2] is on record as “identical binding as that of wild-type CD11a”.
